Measured values from PMC11850232.
Values joined by “and” are separate entries in the source; they are usually repeats but may differ in a detail not shown here. Equal values may be shown once.

Columns and labels:
[1] = biological target: Tilapia Lake virus nucleoprotein (TiLV-NP) (Tilapia Lake virus); experiment: cryo-EM structure
[2] = biological target: Tilapia Lake virus nucleoprotein (TiLV-NP) (Tilapia Lake virus); experiment: mass photometry; apo TiLV-NP at 25 nM; 50 mM HEPES pH 8, 150 mM NaCl, 2 mM TCEP
[3] = biological target: Tilapia Lake virus nucleoprotein (TiLV-NP) (Tilapia Lake virus); experiment: mass photometry; RNA-bound TiLV-NP (40-mer vRNA loop) at 25 nM TiLV-NP; 50 mM HEPES pH 8, 150 mM NaCl, 2 mM TCEP
[4] = biological target: Tilapia Lake virus nucleoprotein (TiLV-NP) (Tilapia Lake virus); experiment: as above; remark: listed apart in the source
[5] = biological target: Tilapia Lake virus nucleoprotein (TiLV-NP) (Tilapia Lake virus); experiment: SEC-MALS; apo TiLV-NP injected at 5 and 3 mg/ml; Superdex 200 Increase 10/300 GL; 50 mM HEPES pH 8, 150 mM NaCl, 2 mM TCEP

## Tilapia Lake virus nucleoprotein (TiLV-NP) (natural protein)
[1]
  stoichiometry N: 4 and 5 and 6
[2]
  stoichiometry N: 3 and 4 and 5
[3]
  stoichiometry N: 5 and 6
[4]
  stoichiometry N: 3 and 4
[5]
  stoichiometry N: 3 and 4
